These are literature values, as cited in PMC4065351.

This data set deals with Cys2 (position 2, ----ECG----). The following applies: free reduced glutathione.

With “Glutathione (GSH, gamma-L-glutamyl-L-cysteinylglycine) (not applicable (ubiquitous low-molecular-weight thiol))”, the pKa is 8.93.

In general, pKa refers to the negative logarithm of the acid dissociation constant.
